# According to PMC11952830 (2025):
# No end group written: not given here. TMR = tetramethylrhodamine
# Biological target: actin (rabbit muscle) (rabbit, UniProt P68135 1-377)
# Assay: FP; actin filaments
binder,measurement,value
"{TMR}-MPAKTPIYLKAANNKKGKKFK (domain or fragment) [Cdc42EP3 (1-21), TMR labeled at the N-terminus]",Kd,18.9 µM
